# Where no end group is shown, it is not given here.
# B1: Phage-95 (peptide)
# peptide: MDWCPRFLWSECFN
# modifications: cysteine pairing not given here; also: displayed on phage as fusion to pIII, linker not given here
# notes: also called position columns give F at position 7)
# B2: Phage-116 (peptide)
# peptide: MDWCPRDLWYACFA
# modifications: cysteine pairing not given here; also: phage-displayed pIII fusion, pIII and linker not given here
# B3: Phage-97 (peptide)
# peptide: MDWCPKDLWDYCFA
# modifications: cysteine pairing not given here; also: displayed on phage as fusion to pIII, linker not given here
# B4: Phage-470 (peptide)
# peptide: WICDKSGSIMLCRA
# notes: Clonal phage supernatant; not shown: bacteriophage pIII to which the peptide is fused for display
# B5: Phage-114 (peptide)
# peptide: MDWCPRYLWFECFA
# modifications: cysteine pairing not given here; also: phage-displayed pIII fusion, pIII and linker not given here
# B6: Phage-468 (peptide)
# peptide: YWYCSPSIVRCVLV
# modifications: cysteine pairing not given here; also: displayed on phage, fused to pIII
# notes: as for B4
# B7: Phage-465 (peptide)
# peptide: DCWWMFESYPGRCI
# modifications: cysteine pairing not given here; also: displayed on phage, fused to pIII
# notes: as for B4
# B8: Phage-112 (peptide)
# peptide: MHWCPRALWDVCYN
# modifications: cysteine pairing not given here; also: phage-displayed pIII fusion, pIII and linker not given here
# B9: Phage-113 (peptide)
# peptide: MDWCPRDLWNVCFF
# modifications: cysteine pairing not given here; also: phage-displayed pIII fusion, pIII and linker not given here
# B10: Phage-109 (peptide)
# peptide: MDWCPKNLWHVCFN
# modifications: cysteine pairing not given here; also: phage-displayed pIII fusion, pIII and linker not given here
# B11: Phage-111 (peptide)
# peptide: MDWCPFYLWNECFY
# modifications: cysteine pairing not given here; also: phage-displayed pIII fusion, pIII and linker not given here
# B12: Phage-98 (peptide)
# peptide: MDWCPKYLWDVCFN
# modifications: cysteine pairing not given here; also: displayed on phage as fusion to pIII, linker not given here
# B13: Phage-93 (peptide)
# peptide: MDWCPRYLWTVCFS
# modifications: cysteine pairing not given here; also: displayed on phage as fusion to pIII, linker not given here
# B14: Phage-115 (peptide)
# peptide: MDWCPRYLWHECFN
# modifications: cysteine pairing not given here; also: phage-displayed pIII fusion, pIII and linker not given here
# B15: Phage-110 (peptide)
# peptide: MDWCPRYLWDECFN
# modifications: cysteine pairing not given here; also: phage-displayed pIII fusion, pIII and linker not given here
# B16: Phage-100 (peptide)
# peptide: MDWCPRYLWTECFN
# modifications: cysteine pairing not given here; also: phage-displayed pIII fusion, pIII and linker not given here
# B17: Phage-94 (peptide)
# peptide: MDWCPRDLWSLCFY
# modifications: cysteine pairing not given here; also: displayed on phage as fusion to pIII, linker not given here
# B18: Phage-471 (peptide)
# peptide: SCAAGASYAWPYCL
# notes: as for B4
# B19: Phage-96 (peptide)
# peptide: MDWCPRTLWAYCFN
# modifications: cysteine pairing not given here; also: displayed on phage as fusion to pIII, linker not given here
# B20: Phage-99 (peptide)
# peptide: MDWCPRYLWNMCFH
# modifications: cysteine pairing not given here; also: displayed on phage as fusion to pIII, linker not given here
# Assays:
# [1] = molecular target: T1, Anti-CD28 Fab (SEQ ID NOs: 696, 697); test: phage binding ELISA; Fab coated wells pre-incubated with CD28 antigen as competitor, anti-M13 HRP detection
# T1 construct: Biotinylated and captured on neutravidin coated plates in the phage ELISA
# T1 sequence (VH, as listed by the source, chain 1 of 2): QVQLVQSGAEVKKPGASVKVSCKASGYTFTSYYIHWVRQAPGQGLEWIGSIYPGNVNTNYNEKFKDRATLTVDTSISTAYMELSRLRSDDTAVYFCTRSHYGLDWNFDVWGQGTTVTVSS
# T1 sequence (VL, as listed by the source, chain 2 of 2): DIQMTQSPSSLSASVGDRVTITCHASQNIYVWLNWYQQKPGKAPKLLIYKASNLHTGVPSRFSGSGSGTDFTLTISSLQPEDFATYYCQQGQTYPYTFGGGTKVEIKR
# Method: (§1) Clonal phage were harvested as crude supematants and screened via standard ELISAs. […] Prior to the addition of clonal phage, wells were incubated with blocking buffer and CD28 antigen or blocking buffer alone. Without washing or aspirating, clonal phage supematants were then added to the wells and incubated for a short time. Wells were then washed followed by detection of bound phage using a horse radish conjugated anti-M13 antibody.
# [2] = molecular target: T1, Anti-CD28 Fab (SEQ ID NOs: 696, 697); test: phage binding ELISA; biotinylated anti-CD28 Fab on neutravidin plate, clonal phage supernatant, anti-M13 HRP detection;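 note: wells pretreated with blocking buffer, either plus or minus CD28 antigen, then given crude phage supernatant briefly without washing in between, then washed before anti-M13 HRP readout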
# Method: as §1
# [3] = molecular target: T2, anti-CD28 scFv (VH - linker 1 - VL) (biotinylated (site not given)); test: phage ELISA; biotinylated anti-CD28 scFv on neutravidin plate, clonal phage supernatant, anti-M13 HRP
# T2 construct: Biotinylated scFv captured on neutravidin coated plates in the panning ELISA
# T2 sequence (scFv, as listed by the source): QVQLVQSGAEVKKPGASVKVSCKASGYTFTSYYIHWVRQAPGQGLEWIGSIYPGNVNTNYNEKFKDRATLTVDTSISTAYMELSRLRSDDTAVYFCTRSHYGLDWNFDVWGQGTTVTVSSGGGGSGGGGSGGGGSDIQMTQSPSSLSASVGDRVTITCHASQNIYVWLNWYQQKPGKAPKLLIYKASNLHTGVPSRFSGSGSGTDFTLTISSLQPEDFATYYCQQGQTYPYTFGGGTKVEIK
# [4] = molecular target: T2, anti-CD28 scFv (VH - linker 1 - VL); test: phage ELISA as above; wells pre-incubated with soluble CD28 as competitor;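 note: crude clonal phage supernatants tested, with bound phage detected by HRP-conjugated anti-M13 antibody, and reference wells given blocking buffer without CD28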
# Method: Clonal phage were harvested as crude supernatants and screened via standard enzyme linked immunosorbent assays (ELISAs). […] Prior to the addition of clonal phage, wells were incubated with blocking buffer and CD28 soluble protein or blocking buffer alone. Without washing or aspirating, clonal phage supernatants were then added to the wells and incubated for a short time. Wells were then washed followed by detection of bound phage using a horse radish peroxidase conjugated anti-M13 antibody.
# [5] = molecular target: T3, Anti-CD28 Fab (SEQ ID NOs: 696, 697); test: phage binding ELISA on plate-captured Fab, competitor CD28 antigen
# T3 construct: In the phage ELISA the Fab was biotinylated and captured on neutravidin coated plates
# T3 sequence (VH, as listed by the source, chain 1 of 2): as the sequence (VH, as listed by the source, chain 1 of 2) above
# T3 sequence (VL, as listed by the source, chain 2 of 2): as the sequence (VL, as listed by the source, chain 2 of 2) above
# Method: (§2) After panning, phage infected bacteria were plated out and colonies picked into 96 well blocks. Clonal phage was then amplified and separated from bacterial cells via centrifugation.
# (§3) Clonal phage were harvested as crude supematants and screened via standard ELISAs. […] Prior to the addition of clonal phage, wells were incubated with blocking buffer and CD28 antigen or blocking buffer alone. Without washing or aspirating, clonal phage supematants were then added to the wells and incubated for a short time. Wells were then washed followed by detection of bound phage using a horse radish conjugated anti-M13 antibody. Clonal phage of interest were then sent for sequence analysis.
# [6] = molecular target: T3, Anti-CD28 Fab (SEQ ID NOs: 696, 697); test: phage binding ELISA, biotinylated Fab on neutravidin plate, anti-M13 HRP detection;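 note: crude clonal phage supernatants added to Fab-coated wells pretreated with CD28 antigen or with blocking buffer only, bound phage measured after washing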
# Method: as §2, §3
Binder,Anti-CD28 Fab signal in the presence of CD28 [1],"Anti-CD28 Fab (SEQ ID NOs: 696, 697) signal [2]",CD28 scFv signal [3],CD28 scFv signal in presence of CD28 [4],further results
TCSAGAAYSWPACF [Phage-1343],0.15,1.89,–,–,–
B1,–,–,2.57,0.227,–
B2,–,–,2.47,0.242,–
B3,–,–,2.57,0.165,–
B4,–,–,–,–,"Anti-CD28 Fab signal in the presence of CD28 [5]: 0.06; Anti-CD28 Fab (SEQ ID NOs: 696, 697) signal [6]: 0.91"
B5,–,–,2.5,0.21,–
B6,–,–,–,–,"Anti-CD28 Fab signal in the presence of CD28 [5]: 0.09; Anti-CD28 Fab (SEQ ID NOs: 696, 697) signal [6]: 1.51"
TCSAGASYPWPLCL [Phage-1336],0.06,2.38,–,–,–
TCSAGAAYPWPLCL [Phage-1342],0.08,2.36,–,–,–
TCSAGATWPWPICL [Phage-1334],0.07,2,–,–,–
B7,–,–,–,–,"Anti-CD28 Fab signal in the presence of CD28 [5]: 0.07; Anti-CD28 Fab (SEQ ID NOs: 696, 697) signal [6]: 1.65"
B8,–,–,2.53,0.24,–
B9,–,–,2.52,0.137,–
B10,–,–,2.53,0.248,–
TCSAGATYTWPKCF [Phage-1338],0.06,1.87,–,–,–
LCAAGATYPWPLCL [Phage-1341],0.07,2.39,–,–,–
LCAAGATYPWPTCL [Phage-1344],0.06,1.71,–,–,–
LCAAGASWPWPVCL [Phage-1335],0.08,2.16,–,–,–

Binder,Anti-CD28 Fab signal in the presence of CD28 [1],"Anti-CD28 Fab (SEQ ID NOs: 696, 697) signal [2]",CD28 scFv signal [3],CD28 scFv signal in presence of CD28 [4],further results
B11,–,–,2.53,0.594,–
TCAAGATWSWPACF [Phage-1339],0.07,2.23,–,–,–
B12,–,–,2.57,0.422,–
B13,–,–,2.58,0.372,–
B14,–,–,2.49,0.421,–
B15,–,–,2.53,0.283,–
B16,–,–,2.56,0.549,–
YCMGHSHEHIWKCL [Phage-476],0.07,0.87,–,–,–
B17,–,–,2.57,0.246,–
B18,–,–,–,–,"Anti-CD28 Fab signal in the presence of CD28 [5]: 0.05; Anti-CD28 Fab (SEQ ID NOs: 696, 697) signal [6]: 1.49"
TCAAGAAWGWPLCF [Phage-1340],0.07,2.3,–,–,–
B19,–,–,2.57,0.584,–
B20,–,–,2.56,0.404,–
YCAGHMPQYEVKCL [Phage-474],0.06,0.22,–,–,–
TCAAGAAWPWPQCL [Phage-1337],0.08,2.23,–,–,–
YCAGHTEEHYVKCM [Phage-475],0.07,0.62,–,–,–
YCAGMSTIQLWLKC [Phage-473],0.09,2.16,–,–,–
YCAGHSHEYLAKCE (also called YCAGHSHEYLAKCE) [Phage-477],0.06,0.86,–,–,–
